From patent US20150344570A1 (published 2015)

T1: FcγRIIa R (human, UniProt P12318 34-217)
T1 construct: extracellular domain; also called FcgRIIa R; FcγRIIa type R; not shown: His tag at the C terminus
T1 sequence (looked up): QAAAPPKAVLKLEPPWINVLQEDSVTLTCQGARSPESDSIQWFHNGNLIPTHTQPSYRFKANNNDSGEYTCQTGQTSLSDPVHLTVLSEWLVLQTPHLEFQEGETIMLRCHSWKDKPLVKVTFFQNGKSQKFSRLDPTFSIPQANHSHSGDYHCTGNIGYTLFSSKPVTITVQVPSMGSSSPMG

T2: FcγRIIb (human, UniProt P31994 43-217)
T2 construct: extracellular domain; also called FcgRIIb; 2b; not shown: His tag at the C terminus
T2 sequence (looked up): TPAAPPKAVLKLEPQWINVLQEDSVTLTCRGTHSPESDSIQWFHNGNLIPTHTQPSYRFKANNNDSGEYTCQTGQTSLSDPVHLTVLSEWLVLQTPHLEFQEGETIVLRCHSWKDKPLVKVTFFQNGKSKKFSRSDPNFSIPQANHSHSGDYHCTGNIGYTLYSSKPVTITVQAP

B1: GpH7-A5/GpH7-B3 variant L235_12R/GpL16-k0 (He Ab) (antibody, human IgG1, kappa)
heavy 1: not shown
heavy 2: not shown
light: DIVMTQSPLSLPVTPGEPASISCQASESLVHSNRNTYLHWYLQKPGQSPQLLIYKVSNRFSGVPDRFSGSGSGTDFTLKISRVEAEDVGVYYCSQNTHVPPTFGQGTKVEIERTVAAPSVFIFPPSDEQLKSGTASVVCLLNNFYPREAKVQWKVDNALQSGNSQESVTEQDSKDSTYSLSSTLTLSKADYEKHKVYACEVTHQGLSSPVTKSFNRGEC
notes: He Ab: mutation in one H chain only
B2: GpH7-A5/GpH7-B3 variant P238_01G/GpL16-k0 (antibody, human IgG1, kappa)
heavy 1: not shown
heavy 2: not shown
light: B1 light
notes: Heterodimerized anti-glypican-3 IgG1; mutation in one H chain only; also called He Ab
B3: GpH7-A5/GpH7-B3 variant S239_12R/GpL16-k0 (antibody, human IgG1, kappa)
heavy 1: not shown
heavy 2: not shown
light: B1 light
notes: as for B2
B4: GpH7-A5/GpH7-B3 variant D265_01G/GpL16-k0 (antibody, human IgG1, kappa)
heavy 1: not shown
heavy 2: not shown
light: B1 light
notes: as for B2
B5: GpH7-A5/GpH7-B3 variant P238_13S/GpL16-k0 (antibody, human IgG1, kappa)
heavy 1: not shown
heavy 2: not shown
light: B1 light
notes: as for B2
B6: GpH7-A5/GpH7-B3 variant D265_03V/GpL16-k0 (antibody, human IgG1, kappa)
heavy 1: not shown
heavy 2: not shown
light: B1 light
notes: as for B2
B7: GpH7-A5/GpH7-B3 variant G236_20W/GpL16-k0 (antibody, human IgG1, kappa)
heavy 1: not shown
heavy 2: not shown
light: B1 light
notes: as for B2
B8: GpH7-A5/GpH7-B3 variant S239_11K/GpL16-k0 (antibody, human IgG1, kappa)
heavy 1: not shown
heavy 2: not shown
light: B1 light
notes: as for B2
B9: GpH7-A5/GpH7-B3 variant G236_19Q/GpL16-k0 (antibody, human IgG1, kappa)
heavy 1: not shown
heavy 2: not shown
light: B1 light
notes: as for B2
B10: GpH7-A5/GpH7-B3 variant G237_03V/GpL16-k0 (antibody, human IgG1, kappa)
heavy 1: not shown
heavy 2: not shown
light: B1 light
notes: as for B2
B11: GpH7-A5/GpH7-B3 variant D265_06M/GpL16-k0 (antibody, human IgG1, kappa)
heavy 1: not shown
heavy 2: not shown
light: B1 light
notes: as for B2
B12: GpH7-A5/GpH7-B3 variant S239_16H/GpL16-k0 (antibody, human IgG1, kappa)
heavy 1: not shown
heavy 2: not shown
light: B1 light
notes: as for B2
B13: GpH7-A5/GpH7-B3 variant G237_16H/GpL16-k0 (antibody, human IgG1, kappa)
heavy 1: not shown
heavy 2: not shown
light: B1 light
notes: as for B2
B14: GpH7-A5/GpH7-B3 variant P238_18N/GpL16-k0 (antibody, human IgG1, kappa)
heavy 1: not shown
heavy 2: not shown
light: B1 light
notes: as for B2
B15: GpH7-A5/GpH7-B3 variant D265_04F/GpL16-k0 (antibody, human IgG1, kappa)
heavy 1: not shown
heavy 2: not shown
light: B1 light
notes: as for B2
B16: GpH7-A5/GpH7-B3 variant G237_14T/GpL16-k0 (antibody, human IgG1, kappa)
heavy 1: not shown
heavy 2: not shown
light: B1 light
notes: as for B2
B17: GpH7-A5/GpH7-B3 variant G236_16H/GpL16-k0 (antibody, human IgG1, kappa)
heavy 1: not shown
heavy 2: not shown
light: B1 light
notes: as for B2
B18: GpH7-A5/GpH7-B3 variant G237_05P/GpL16-k0 (antibody, human IgG1, kappa)
heavy 1: not shown
heavy 2: not shown
light: B1 light
notes: as for B2
B19: GpH7-A5/GpH7-B3 variant D265_07I/GpL16-k0 (antibody, human IgG1, kappa)
heavy 1: not shown
heavy 2: not shown
light: B1 light
notes: as for B2
B20: GpH7-A5/GpH7-B3 variant S239_04F/GpL16-k0 (antibody, human IgG1, kappa)
heavy 1: not shown
heavy 2: not shown
light: B1 light
notes: as for B2
B21: GpH7-A5/GpH7-B3 variant D265_02A/GpL16-k0 (antibody, human IgG1, kappa)
heavy 1: not shown
heavy 2: not shown
light: B1 light
notes: as for B2
B22: GpH7-A5/GpH7-B3 variant P238_14T/GpL16-k0 (antibody, human IgG1, kappa)
heavy 1: not shown
heavy 2: not shown
light: B1 light
notes: as for B2
B23: GpH7-A5/GpH7-B3 variant P238_11K/GpL16-k0 (antibody, human IgG1, kappa)
heavy 1: not shown
heavy 2: not shown
light: B1 light
notes: as for B2
B24: GpH7-A5/GpH7-B3 variant G236_15Y/GpL16-k0 (antibody, human IgG1, kappa)
heavy 1: not shown
heavy 2: not shown
light: B1 light
notes: as for B2
B25: GpH7-A5/GpH7-B3 variant S239_15Y/GpL16-k0 (antibody, human IgG1, kappa)
heavy 1: not shown
heavy 2: not shown
light: B1 light
notes: as for B2
B26: GpH7-A5/GpH7-B3 variant P238_02A/GpL16-k0 (antibody, human IgG1, kappa)
heavy 1: not shown
heavy 2: not shown
light: B1 light
notes: as for B2
B27: GpH7-A5/GpH7-B3 variant P238_12R/GpL16-k0 (antibody, human IgG1, kappa)
heavy 1: not shown
heavy 2: not shown
light: B1 light
notes: as for B2
B28: GpH7-A5/GpH7-B3 variant D265_08L/GpL16-k0 (antibody, human IgG1, kappa)
heavy 1: not shown
heavy 2: not shown
light: B1 light
notes: as for B2

target: T3, FcγRIa extracellular domain with C-terminal His tag (human, UniProt P12314 16-292); assay: SPR (Biacore), relative binding, HeCon Ab = 100
T3 construct: extracellular domain; Expressed in FreeStyle293 cells; analyte in the SPR assay; also called FcgRI; 1a
T3 sequence (P12314 16-292): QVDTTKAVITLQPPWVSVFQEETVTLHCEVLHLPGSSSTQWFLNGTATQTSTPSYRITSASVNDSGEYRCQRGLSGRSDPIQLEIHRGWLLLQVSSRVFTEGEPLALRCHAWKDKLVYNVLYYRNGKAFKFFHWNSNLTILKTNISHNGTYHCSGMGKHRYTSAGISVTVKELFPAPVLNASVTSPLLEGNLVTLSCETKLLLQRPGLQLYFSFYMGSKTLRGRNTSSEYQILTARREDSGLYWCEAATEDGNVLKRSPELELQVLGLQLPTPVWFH

Binder	He/Con_1a
B1	78 % of HeCon Ab (=100)

target: T3, FcγRIa extracellular domain with …; assay: SPR (Biacore); He/Con_1a divided by He/Con_2b (FcγRIa against FcγRIIb)

Binder	He_1a/2b (Ia/IIb) [ratio]
B1	8.12

target: T1, FcγRIIa R; assay: SPR (Biacore T100); He/Con_2aR divided by He/Con_2b (FcγRIIa R over FcγRIIb)
Experimental: (§1) The heterodimerized antibodies He Abs in which one of the H chains was introduced with an alteration were assayed for their binding activities to each activating FcγR and inhibitory FcγR according to the method described in Example 4. […] The activating FcγRs in FIGS. 26, 27, 28, and 29 are FcγRIa, FcγRIIa (R), FcγRIIa (H), and FcγRIIIa, respectively.
(§2) Analysis of interaction between objective antibody and the FcγR was carried out using Biacore T100 (GE Healthcare). HBS-EP+ (GE Healthcare) was used as the running buffer, and the measurement temperature was set to 25° C. Chips produced by immobilizing the antigen peptide by the amine coupling method to a Series S Sencor Chip CM5 (GE Healthcare), or alternatively, chips produced by allowing preliminarily biotinylated antigen peptides to interact with and immobilize onto a Series S Sensor Chip SA (certified) (GE Healthcare) were used. Antibodies of interest were captured onto an antigen peptide-immobilized chip, and allowed to interact to each FcγR diluted with running buffer. To regenerate and repeatedly use the chip, the antibodies captured on the chip were washed off by reacting 10 mM glycine-HCl, pH 1.5.

Binder	He_2aR/2b (IIaR/IIb) [ratio]
B2	1.34
B3	1.38
B4	1.49
B5	1.26
B6	1.8
B7	1.34
B8	1.96
B9	1.59
B10	1.52
B11	1.58
B12	1.4
B13	1.35
B14	1.26
B15	1.79
B16	1.43
B17	2.24
B18	1.4
B19	2.57
B20	1.24
B21	1.71
B22	1.44
B23	2.03
B24	1.48
B25	1.21
B26	1.31
B27	1.57
B28	1.46

target: T1, FcγRIIa R; assay: SPR (Biacore T100), antibody captured on antigen peptide chip, FcγR as analyte; binding relative to GpH7-A5/GpH7-B3/GpL16-k0 = 100
Experimental: as §1, §2

Binder	He/Con_2aR (IIaR binding)
B2	75 % of control
B3	53.9 % of control
B4	24.1 % of control
B5	88.9 % of control
B6	5.8 % of control
B7	77.9 % of control
B8	48.5 % of control
B9	74.2 % of control
B10	93 % of control
B11	15.8 % of control
B12	69.2 % of control
B13	74.5 % of control
B14	91.9 % of control
B15	5.6 % of control
B16	78.6 % of control
B17	62.7 % of control
B18	34.5 % of control
B19	3.4 % of control
B20	54.8 % of control
B21	33.9 % of control
B22	73.1 % of control
B23	36.9 % of control
B24	58.6 % of control
B25	42.2 % of control
B26	75.1 % of control
B27	80.5 % of control
B28	6.6 % of control

target: T2, FcγRIIb; assay: as above
Experimental: as §1, §2

Binder	He/Con_2b (IIb binding)
B2	56 % of control
B3	39.1 % of control
B4	16.1 % of control
B5	70.4 % of control
B6	3.2 % of control
B7	58.2 % of control
B8	24.7 % of control
B9	46.6 % of control
B10	61.4 % of control
B11	10 % of control
B12	49.4 % of control
B13	55.2 % of control
B14	73.2 % of control
B15	3.2 % of control
B16	54.8 % of control
B17	27.9 % of control
B18	24.6 % of control
B19	1.3 % of control
B20	44.1 % of control
B21	19.9 % of control
B22	50.7 % of control
B23	18.1 % of control
B24	39.5 % of control
B25	34.9 % of control
B26	57.4 % of control
B27	51.4 % of control
B28	4.6 % of control
